Measured values: the Immune Epitope Database (IEDB)

Key:
[1] = target: HLA-B*40:01; assay: IEDB peptide-MHC binding, purified MHC/competitive/radioactivity; filed as Kd, often an IC50 or EC50 that approximates it; ≥ and ≤ were set here for values at or beyond the usual limits of such assays
[2] = target: HLA-B*44:02; assay: as above; settings: source organism: Dengue virus 1 Singapore/S275/1990
[3] = target: HLA-B*44:03; assay: as above; settings: source organism: Dengue virus 1 Singapore/S275/1990
[4] = target: HLA-A*01:01; assay: as above
[5] = target: HLA-A*23:01; assay: as above
[6] = target: HLA-A*24:02; assay: as above
[7] = target: HLA-A*26:01; assay: as above
[8] = target: HLA-A*29:02; assay: as above
[9] = target: HLA-A*30:02; assay: as above
[10] = target: HLA-B*57:01; assay: IEDB peptide-MHC binding, purified MHC/direct/fluorescence; filed as Kd, often an IC50 or EC50 that approximates it; ≥ and ≤ were set here for values at or beyond the usual limits of such assays; settings: source organism: Yersinia pestis Antiqua
[11] = target: HLA-B*58:01; assay: as above; settings: source organism: Yersinia pestis Antiqua
[12] = target: HLA-B*15:01; assay: IEDB peptide-MHC binding, purified MHC/competitive/radioactivity; filed as Kd, often an IC50 or EC50 that approximates it; ≥ and ≤ were set here for values at or beyond the usual limits of such assays; settings: source organism: Vaccinia virus WR
[13] = source organism: Dengue virus 2 Jamaica/1409/1983
[14] = source organism: Mammarenavirus lassaense
[15] = source organism: SARS coronavirus Tor2
[16] = source organism: Lassa virus Josiah
[17] = source organism: Mammarenavirus juninense
[18] = source organism: Mammarenavirus brazilense

Question: How did the Kd [1, 13] turn out when AEHTGREIV was run?
Answer: Its Kd is 62.4 nM.

Question: Which Kd ([1]; source organism: Dengue virus 1 Singapore/S275/1990) does the source give for AENHHHATML here?
Answer: The Kd was 39.9 nM.

Question: And the Kd [2]?
Answer: The Kd was 55.7 nM.

Question: And the Kd [3]?
Answer: Its Kd is 189 nM.

Question: Which Kd [4, 14] does the source give for AGFVAGLTY here?
Answer: Its Kd is no less than 35300 nM.

Question: What about the Kd [5, 14] of the same sequence?
Answer: Its Kd is 8.02 µM.

Question: What about the Kd [6, 14] of the same sequence?
Answer: The Kd was no less than 52.6 µM.

Question: And the Kd [7, 14]?
Answer: Its Kd is no less than 77900 nM.

Question: And the Kd [8, 14]?
Answer: The Kd was 130 nM.

Question: And the Kd [9, 14]?
Answer: Its Kd is 520 nM.

Question: With ASSALDAHF as the sequence, how does the Kd [10] read?
Answer: The Kd was 396 nM.

Question: And the Kd [11]?
Answer: Its Kd is 4.4 nM.

Question: Which results are given for AWLVHRQWF?
Answer: Kd [5, 13]: 0.34 µM; Kd [6, 13]: 0.164 µM

Question: DPAKAYKDY was tested. Which Kd [4, 15] did it give?
Answer: The Kd was no less than 119000 nM.

Question: What about the Kd [5, 15] of the same sequence?
Answer: Its Kd is no less than 77.8 µM.

Question: What about the Kd [6, 15] of the same sequence?
Answer: Its Kd is no less than 77.6 µM.

Question: And the Kd [7, 15]?
Answer: Its Kd is no less than 85500 nM.

Question: What about the Kd [8, 15] of the same sequence?
Answer: The Kd was 446 nM.

Question: And the Kd [9, 15]?
Answer: The Kd was 9270 nM.

Question: Which Kd [4, 16] does the source give for EGKDTPGGY here?
Answer: Its Kd is no less than 37900 nM.

Question: What about the Kd [5, 16] of the same sequence?
Answer: Its Kd is no less than 63.2 µM.

Question: What about the Kd [6, 16] of the same sequence?
Answer: The Kd was no less than 77.5 µM.

Question: And the Kd [7, 16]?
Answer: The Kd was no less than 77900 nM.

Question: What about the Kd [8, 16] of the same sequence?
Answer: Its Kd is no less than 78900 nM.

Question: And the Kd [9, 16]?
Answer: The Kd was no less than 76900 nM.

Question: Which Kd [12] does the source give for EIKTGISSF here?
Answer: The Kd was 89.9 nM.

Question: How did the Kd [12] turn out when EISSTFNRF was run?
Answer: Its Kd is 131 nM.

Question: For ELADTSLSGY, which Kd [4, 15] is on record?
Answer: Its Kd is 73.6 nM.

Question: And the Kd [5, 15]?
Answer: Its Kd is no less than 70 µM.

Question: And the Kd [6, 15]?
Answer: The Kd was no less than 70.3 µM.

Question: And the Kd [7, 15]?
Answer: Its Kd is 24.5 nM.

Question: And the Kd [8, 15]?
Answer: Its Kd is 89.2 nM.

Question: And the Kd [9, 15]?
Answer: Its Kd is 76.7 nM.

Question: For EMVCFHEFL, which Kd [5, 17] is on record?
Answer: The Kd was 1.99 µM.

Question: And the Kd [6, 17]?
Answer: Its Kd is 16.9 µM.

Question: And the Kd [8, 17]?
Answer: The Kd was no less than 10000 nM.

Question: Which Kd [12] does the source give for EQKAYVPAM here?
Answer: The Kd was 0.773 nM.

Question: Which results are given for ESASKSASVY?
Answer: Kd [4, 15]: 300 nM; Kd [5, 15]: ≥ 70 µM; Kd [6, 15]: ≥ 70.3 µM; Kd [7, 15]: 286 nM; Kd [8, 15]: 374 nM; Kd [9, 15]: 659 nM

Question: EYGFTRRFKF was tested. Which Kd [5, 18] did it give?
Answer: The Kd was 0.0453 µM.

Question: What about the Kd [6, 18] of the same sequence?
Answer: Its Kd is 0.134 µM.

Question: What about the Kd [8, 18] of the same sequence?
Answer: The Kd was 133 nM.

Question: With FEEYKRSGI as the sequence, how does the Kd ([1]; source organism: Dengue virus 4 Philippines/H241/1956) read?
Answer: Its Kd is 1290 nM.
